Measurements as given in patent US20030211523A1 (published 2003).

What was measured:
[1] = target: VP16 transcription activation domain fused to aa 133-239 of c-Fos, encoded by PMVP_Fos (human) (UniProt P01100); assay: cell-based or functional assay
[2] = target: VP16 activation domain alone, encoded by the empty prey vector PMVP (UniProt P06492); assay: cell-based or functional assay
[3] = target: T1, JZ domain of c-Jun fused with GFP, encoded by PMNGFP_JZ (human, UniProt P05412 249-331; P42212 1-238 = GFP); assay: in vivo binding screening: membrane localization of the GFP fusion in HEK293T cells, fluorescence microscopy
T1 construct: Expressed in HEK293T cells; also called bait in the second screening

[4] = target: T2, JA domain (aa 1-223) of c-Jun fused with GFP, encoded by PMNGFP_JA (human, UniProt P05412 1-223; P42212 1-238 = GFP); assay: as above
T2 construct: Expressed in HEK293T cells

Sequence of VP16 activation domain alone, encoded by the empty prey vector PMVP (P06492 411-456 limits assumed): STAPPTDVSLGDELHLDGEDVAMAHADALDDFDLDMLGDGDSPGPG

Gal4 DNA-binding domain alone, encoded by the empty bait vector PMBD (from UniProt P04386 1-147)
events with GFP 30-fold or more above the background (FACS) (event in 10000) [1]: < 1

Gal4 DNA-binding domain fused to the JZ domain (aa 249-331) of c-Jun, encoded by PMBD_JZ (from UniProt P04386 1-147; P05412 249-331)
events with GFP 30-fold or more above the background (FACS) (event in 10000) [2]: < 1

B1: Fyn_JA: Fyn membrane-localizing signal fused to the JA domain of c-Jun (other, UniProt P06241 1-10, looked up)
chain: MGCVQCKDKEMTAKMETTFYDDALNASFLPSESGPYGYSNPKILKQSMTLNLADPVGSLKPHLRAKNSDLLTSPDVGLLKLASPELERLIIQSSNGHITTTPTPTQFLCPKNVTDEQEGFAEGFVRALAELHSQNTLPSVTSAAQPVNGAGMVAPAVASVAGGSGSGGFSASLHSEPPVYANLSNFNPGALSSGGGAPSYGAAGLAFPAQPQQQQQPPHHLPQQMPVQHPRLQ
modifications: myristoylation signal at the N-terminus (membrane-localizing signal)
notes: domain: myristoylation signal;range 1-223
binding result [3]: no binding

B2: Fyn_Fos peptide: Fyn myristoylation (membrane-localizing) signal fused to c-Fos aa 133-239, expressed from the 3-primer PCR product (other, UniProt P06241 1-10, looked up)
chain: MGCVQCKDKESPEEEEKRRIRRERNKMAAAKCRNRRRELTDTLQAETDQLEDEKSALQTEIANLLKEKEKLEFILAAHRPACKIPDDLGFPEEMSVASLDLTGGLPEVATPESEEAF
modifications: myristoylation signal at the N-terminus (membrane-localizing signal)
notes: domain: myristoylation signal;range 133-239; Expressed in HEK293T cells
binding result [4]: no binding
